In US20210139610A1, “COMPOSITIONS AND METHODS FOR MEDIATING EPS” (priority 2018, published 2021):
“Also recorded” adds a separate entry of the source.

Columns and labels:
[1] = tested on: Z-DNA and B-DNA in the NTHI biofilm extracellular matrix; experiment: Immunofluorescence CLSM for Z-DNA / B-DNA in NTHI biofilms; assay type: cell-based, Non-typeable Haemophilus influenzae; settings: DNase (Pulmozyme; 5 units) at 24 h, read at 40 h
Procedure: FIG. 31: DNase degrades B-DNA, but not Z-DNA, within the biofilm extracellular matrix. DNase (Pulmozyme; 5 units) was added at 24 h after biofilm seeding to in vitro pre-formed NTHI biofilms.
FIG. 37: HMGB1 destabilizes Z-DNA structures in the biofilm extracellular matrix. Non-typeable Haemophilus influenzae biofilms were grown in supplemented BHI media in 8 well chambered coverglass slides at 37° C. and 5% CO2. After 24 h, biofilms were treated as indicated above. After 40 h, biofilms were washed, probed with primary antibodies directed against Z-DNA (light gray dots), a fluorescent secondary antibody, stained with DAPI (gray regions), and visualized via fluorescence microscopy.
FIGS. 50A-50B: Equilibrium shift of B-DNA to Z-DNA conversion alters biofilm formation. NTHI biofilms formed for 24 h were incubated with cerium chloride (CeCl3) or chloroquine for an additional 16 h and were probed with naive or anti-Z-DNA (white) by immunofluorescence CLSM.
FIGS. 51A-51B: Equilibrium shift of B-DNA to Z-DNA conversion alters biofilm formation. NTHI biofilms formed for 24 h were incubated with cerium chloride (CeCl3) (FIG. 51A) or chloroquine (FIG. 51B) for an additional 16 h. Z-DNA was measured by IF and CLSM using anti-Z-DNA and cells were stained with the membrane stain FM4-64. Bars represent the SEM. Statistical significance compared to control was assessed by paired t-tests, *P<0.05, **P<0.01.

genomic DNA = experiment: Spermidine sensitivity of nucleases on genomic DNA; assay type: biochemical; settings: Spermidine titrated from 10 μM-10 mM
[2] = tested on: Biofilms formed for 24 h by the indicated bacteria (Kp=K. pneumoniae); experiment: B-DNA / Z-DNA abundance after DNase in 24 h biofilms of the indicated bacteria (ImageJ fluorescence ratio); assay type: cell-based; settings: Pulmozyme 40 U/ml for 16 h
Procedure: FIGS. 48A-48B: Z-DNA in biofilms forms a nuclease-resistant scaffold. (FIG. 48A) Biofilms formed for 24 h by the indicated bacteria (Kp=K. pneumoniae) were incubated with DNase (Pulmozyme®; 40 U/ml) for an additional 16 h. Biofilms were then probed with anti-B-DNA (dark gray) and anti-Z-DNA (white) antibodies and counterstained with the bacterial cell membrane stain FM4-64™ (not shown). (FIG. 48B) Changes in abundance of B-DNA or Z-DNA were quantified using ImageJ by calculation of the ratio of fluorescence intensity of B-DNA or Z-DNA after DNase addition divided by the fluorescence intensity in the absence of DNase (Control). Fluorescence intensity was normalized to the fluorescence signal of FM4-64™-stained cells. Bars represent the SEM. Statistical significance compared to Control (no DNase, dotted line) was assessed by paired t-tests, *P<0.05; ****P<0.0001.

preformed NTHI biofilms = experiment: Disruption of pre-formed NTHI biofilms (treatment after initial growth; LIVE/DEAD, CLSM, COMSTAT); assay type: cell-based, Non-typeable Haemophilus influenzae; settings: DNase (Pulmozyme) added at 24 h
Procedure: (FIG. 18A) Biofilm growth was initiated then maintained for 24 hrs then treated for 16 hrs with 0 (SBHI Control), 0.1%, 1%, and 5% (w/v) of Phoshocellulose (P11). (FIG. 18B) Biofilm growth was initiated then maintained for 40 hrs in the presence of 0 (sBHI Control), 0.1%, 1%, and 5% (w/v) of (P11). Biofilms were washed with saline and stained with LIVE/DEAD® stain. Images were analyzed by COMSTAT to calculate average thickness and biomass. All images were captured with a 63× objective.
21:65-7. Pulmozyme® was added either at seeding (biofilm prevention) or to pre-formed biofilms (biofilm disruption) (FIG. 6). The resultant biofilms were stained with LIVE/DEAD® and evaluated using CLSM and COMSTAT analysis.
To determine anti-biofilm activity of cation exchange resins on preformed biofilms (i.e. ability to disrupt an extant biofilm), NTHI growth was initiated and maintained for 24 hrs, then treated for 16 hrs with 0 (sBHI Control), 0.1, 1, or 5% (w/v) of P11 phosphocellulose (FIG. 18A). To determine the anti-biofilm activity of cation exchange resins to prevent biofilm formation, NTHI growth was initiated and maintained in the presence of 0 (sBHI Control), 0.1, 1, and 5% w/v of P11 phosphocellulose (FIG. 18B) or 5% (w/v) heparin sepharose (FIG. 19). Biofilms were washed with saline and stained with LIVE/DEAD®, visualized with confocal scanning microscopy (CSLM) and analyzed by COMSTAT to determine average thickness and biomass.

[3] = tested on: Non-typeable Haemophilus influenzae biofilms; experiment: NTHI in vitro biofilm formation, additive present from seeding (LIVE/DEAD, CLSM, COMSTAT); assay type: cell-based; settings: DNase (Pulmozyme) added at seeding
Procedure: FIG. 14: Non-typeable Haemophilus influenzae biofilms were grown for 40 h in supplemented BHI medium containing additives as indicated below each bar in 8 well chambered coverglass slides at 37° C. and 5% CO2. Biofilms were washed, stained with LIVE/DEAD®, fixed, and imaged by CLSM. Biofilm parameters were quantified using COMSTAT software.
Dicyclohexylamine inhibits spermidine synthase via a competitive inhibition mechanism, i.e. through binding to the same site on the protein as the putrescine substrate. Applicants therefore hypothesized that dicyclohexylamine would inhibit NTHi biofilm development. […]

B1: DNase: Pulmozyme, a recombinant human DNase used for management of cystic fibrosis patients (protein, UniProt P24855 23-282, looked up)
Deoxyribonuclease-1: LKIAAFNIQTFGETKMSNATLVSYIVQILSRYDIALVQEVRDSHLTAVGKLLDNLNQDAPDTYHYVVSEPLGRNSYKERYLFVYRPDQVSAVDSYYYDDGCEPCGNDTFNREPAIVRFFSRFTEVREFAIVPLHAAPGDAVAEIDALYDVYLDVQEKWGLEDVMLMGDFNAGCSYVRPSQWSSIRLWTSPTFQWLIPDSADTTATPTHCAYDRIVVAGMLLRGAVVPDSALPFNFQAAYGLSDQLAQAISDHYPVEVMLK
B1 was tested, and the “B-DNA form eDNA in NTHI biofilm matrix” value [1] was “degrades B-DNA form eDNA structures”, the “Z-DNA form eDNA in NTHI biofilm matrix” value [1] was “reveals extensive Z-DNA form eDNA” and the “Spd inhibition: spermidine concentration where nuclease was reduced to <10% activity on genomic DNA” value (genomic DNA) was 300 µM. The “B-DNA abundance after DNase” value [2] was “B-DNA is degraded”, the “Z-DNA abundance after DNase” value [2] was “Z-DNA is resistant” and the “NTHI mature biofilm disruption” value (preformed NTHI biofilms) was “unable to disrupt mature biofilms; also recorded: not disrupt extant biofilms”. The “NTHI biofilm prevention (average thickness, biomass)” value [3] was “significant reduction in average thickness and biomass of NTHI and UPEC biofilms; also recorded: can prevent formation of”.
